Test results published in patent publication US5654398, “Compositions and methods for inhibiting replication of human immunodeficiency virus-1” (The Regents of the University of California).

Target: Rev34-50 peptide I (free N- and C-termini) (HIV-1)
Assay: EMSA; apparent nonspecific Kd with tRNA, 4 C
Conditions: protein: synthetic; tags: synthetic peptide, unmodified termini; label: 32P; stem-loop with internal bulge

B1: RRE IIB C46-G74 mutant (ssRNA)
RNA: GGCUGGUAUCGGCGCAGCGUCAAUGACGCUGACGGUAGAGGCCAGCC
modifications: [10,38]
  Kd: 3000 nM
